Key:
MBP-DDX3Y = MBP-DDX3Y (human, UniProt O15523 1-660); assay: smFRET
MBP-DDX3X = MBP-DDX3X (human, UniProt O00571 1-662); assay: smFRET
Chain of MBP-DDX3X (O00571 whole entry): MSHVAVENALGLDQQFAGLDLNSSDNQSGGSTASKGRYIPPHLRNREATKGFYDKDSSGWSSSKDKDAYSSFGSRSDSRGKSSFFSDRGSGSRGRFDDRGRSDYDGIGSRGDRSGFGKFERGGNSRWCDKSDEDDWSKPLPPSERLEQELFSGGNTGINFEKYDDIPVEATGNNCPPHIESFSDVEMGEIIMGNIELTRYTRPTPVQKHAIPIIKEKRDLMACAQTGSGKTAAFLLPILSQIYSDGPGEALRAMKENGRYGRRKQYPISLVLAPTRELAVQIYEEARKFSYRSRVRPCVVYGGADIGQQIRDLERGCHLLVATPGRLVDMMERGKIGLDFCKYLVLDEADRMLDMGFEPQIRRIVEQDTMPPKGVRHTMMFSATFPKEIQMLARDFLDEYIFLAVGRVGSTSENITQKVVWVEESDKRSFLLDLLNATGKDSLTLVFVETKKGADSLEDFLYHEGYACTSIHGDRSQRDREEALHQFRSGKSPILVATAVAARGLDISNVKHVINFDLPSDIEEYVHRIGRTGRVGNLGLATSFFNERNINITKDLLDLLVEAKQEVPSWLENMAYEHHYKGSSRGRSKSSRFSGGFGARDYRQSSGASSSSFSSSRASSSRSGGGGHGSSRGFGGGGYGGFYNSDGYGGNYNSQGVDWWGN

Chain of MBP-DDX3Y (O15523 whole entry): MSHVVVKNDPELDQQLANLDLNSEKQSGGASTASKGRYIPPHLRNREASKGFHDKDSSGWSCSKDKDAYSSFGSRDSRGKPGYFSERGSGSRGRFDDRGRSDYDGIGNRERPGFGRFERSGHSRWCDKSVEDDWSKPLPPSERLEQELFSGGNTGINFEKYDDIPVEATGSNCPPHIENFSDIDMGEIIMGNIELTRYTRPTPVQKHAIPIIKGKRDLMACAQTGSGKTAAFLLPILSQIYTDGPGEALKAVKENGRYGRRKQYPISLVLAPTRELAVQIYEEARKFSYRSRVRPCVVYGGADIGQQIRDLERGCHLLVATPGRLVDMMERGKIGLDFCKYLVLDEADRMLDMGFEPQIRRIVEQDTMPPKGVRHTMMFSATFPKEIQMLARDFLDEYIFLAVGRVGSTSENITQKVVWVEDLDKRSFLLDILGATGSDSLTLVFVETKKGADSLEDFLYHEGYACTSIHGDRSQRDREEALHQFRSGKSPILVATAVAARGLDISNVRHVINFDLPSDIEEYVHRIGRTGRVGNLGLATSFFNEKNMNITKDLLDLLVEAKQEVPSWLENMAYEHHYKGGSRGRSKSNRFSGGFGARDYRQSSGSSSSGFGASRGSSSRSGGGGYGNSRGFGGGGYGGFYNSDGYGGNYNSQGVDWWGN

B1: smFRET dsRNA with 5' poly(U) overhang (dsRNA)
RNA 1: ACCGCUGCCGUCGCUCCG
RNA 2: UUUUUUUUUUUUUUUUUUUUUUUUUUUUUUUUUUUUUUUUUUUUUUUUUUCGGAGCGACGGCAGCGGU
- binding result (MBP-DDX3Y): binds
- binding result (MBP-DDX3X): binds
